Reference: publication doi:10.1101/2021.04.16.440242

Molecular target: T1, wild-type CHIP (carboxyl terminus of Hsc70-interacting protein) (human), Q9UNE7
T1 chain: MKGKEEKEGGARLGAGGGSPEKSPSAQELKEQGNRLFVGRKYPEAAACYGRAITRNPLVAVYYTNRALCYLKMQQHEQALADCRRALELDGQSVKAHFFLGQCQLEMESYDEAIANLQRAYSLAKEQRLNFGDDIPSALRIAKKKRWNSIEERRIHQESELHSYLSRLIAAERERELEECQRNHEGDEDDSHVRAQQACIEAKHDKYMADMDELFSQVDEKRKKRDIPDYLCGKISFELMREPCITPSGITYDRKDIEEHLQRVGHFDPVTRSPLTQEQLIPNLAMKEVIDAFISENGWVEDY
Test: SEC
Conditions: remark: other sources report otherwise

stoichiometry N: 2
B1: wild-type CHIP (carboxyl terminus of Hsc70-interacting protein), Q9UNE7 1-303 (enzyme)
chain: MKGKEEKEGGARLGAGGGSPEKSPSAQELKEQGNRLFVGRKYPEAAACYGRAITRNPLVAVYYTNRALCYLKMQQHEQALADCRRALELDGQSVKAHFFLGQCQLEMESYDEAIANLQRAYSLAKEQRLNFGDDIPSALRIAKKKRWNSIEERRIHQESELHSYLSRLIAAERERELEECQRNHEGDEDDSHVRAQQACIEAKHDKYMADMDELFSQVDEKRKKRDIPDYLCGKISFELMREPCITPSGITYDRKDIEEHLQRVGHFDPVTRSPLTQEQLIPNLAMKEVIDAFISENGWVEDY
